± gives the standard error. This sample holds only a part of the variants without activity.
B1: glmS ribozyme (parent)
chain: AUAAAAGCGCCAGAACUACAGAAAUGUAGUUGACGAGGAGGAGGUUUAUCGAAUUUUCGGCGGAUGCCUCCAAA

Legend:
Settings in all cases: with glucosamine-6-phosphate
[1] = variants of: B1; test: self-cleavage kobs at 160 uM GlcN6P; higher = faster cleavage; RNA array
How it was run: (§1)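 Over ~14 h at 37 °C, tiles were imaged as glucosamine-6-phosphate (40 μM to 10 mM) in HEPES/KCl/Mg(OAc)2 buffer flowed across sequenced MiSeq chips. The chips carried barcoded ribozyme variants transcribed in situ by E. coli RNA polymerase and tracked with a hybridised Cy3 probe. After normalisation to baseline and to non-cleaving reference variants, one- or two-exponential decay fits of per-tile medians gave kobs. kcat and KM followed from weighted Michaelis–Menten fits across concentrations.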

[2] = variants of: B1; test: self-cleavage kobs at 640 uM GlcN6P; higher = faster cleavage; RNA array
How it was run: as §1

[3] = variants of: B1; test: self-cleavage kobs at 2500 uM GlcN6P; higher = faster cleavage; RNA array
How it was run: as §1

[4] = variants of: B1; test: self-cleavage kobs at 10000 uM GlcN6P; higher = faster cleavage; RNA array
How it was run: as §1

Variant	self-cleavage kobs at 160 uM GlcN6P [1] [s⁻¹]	self-cleavage kobs at 640 uM GlcN6P [2] [s⁻¹]	self-cleavage kobs at 2500 uM GlcN6P [3] [s⁻¹]	self-cleavage kobs at 10000 uM GlcN6P [4] [s⁻¹]
C11U A14G C70U	0.00076 ± 0.00021	0.000656 ± 0.00014	0.00193 ± 0.0006	
A33U A53U U69G	3.89e-05 ± 1.8e-05	0.000215 ± 7.6e-05	5.61e-05 ± 2.6e-05	
C16U G60C	< 1e-05	< 1e-05	< 1e-05	
G7U C61U	< 1e-05	< 1e-05		< 1e-05
A6G G62U C71G		< 1e-05		
C34A U45A C70U	< 1e-05	< 1e-05	< 1e-05	
C11G C67U	< 1e-05	< 1e-05	< 1e-05	
G9U A12G	< 1e-05	< 1e-05	< 1e-05	< 1e-05
G13C C58U G59U	< 1e-05			
A6U A42C A53C U65G	< 1e-05	< 1e-05	< 1e-05	
C11A C50G C61U	0.000476 ± 0.00011	0.000601 ± 0.00018		
G29A A42G U45A	6.61e-05 ± 3e-05	0.00154 ± 0.00038	0.00402 ± 0.0015	
C34U G41C A52U G60C U69G		< 1e-05		< 1e-05
G13A A33G G63C	< 1e-05		< 1e-05	
U17G	0.00191 ± 0.00076	0.00535 ± 0.0016		
C16G G29U G37A	5.27e-05 ± 1.6e-05	0.000272 ± 7.4e-05	0.000382 ± 9.7e-05	
A6C C10G A36C U49C A53U A64U	< 1e-05			
A42C G63U	< 1e-05			< 1e-05
A14G U55A A64C C70U	3.8e-05 ± 1.7e-05	0.000343 ± 8.3e-05	0.000958 ± 0.00021	0.000686 ± 0.00019
U47G G62U		< 1e-05		
G7U C10G G13U A15U A39G	< 1e-05	< 1e-05	< 1e-05	
G9U A48U	< 1e-05		< 1e-05	< 1e-05
A52C A64C	< 1e-05	< 1e-05		< 1e-05
G38A G59A	< 1e-05			< 1e-05
A39U A52C A53G A64U		< 1e-05	< 1e-05	
U30A G41C U49A	< 1e-05	< 1e-05	< 1e-05	< 1e-05

Variant	self-cleavage kobs at 160 uM GlcN6P [1] [s⁻¹]	self-cleavage kobs at 640 uM GlcN6P [2] [s⁻¹]	self-cleavage kobs at 2500 uM GlcN6P [3] [s⁻¹]	self-cleavage kobs at 10000 uM GlcN6P [4] [s⁻¹]
C10U G62C	< 1e-05		< 1e-05	< 1e-05
G44C U54A C68U	< 1e-05			
A6C C10A G35A C58G C70G	4.89e-05 ± 2.3e-05	0.000553 ± 0.00014	0.000134 ± 4.9e-05	
A33C G62A G63A	< 1e-05		< 1e-05	
G38C G41A G51U	< 1e-05		< 1e-05	
C8G G38A A48U C61U	< 1e-05			
G7U A36C A48C A53U	< 1e-05		< 1e-05	
U45A C67G C68A	7.91e-05 ± 1.9e-05	0.000177 ± 4.1e-05	0.000173 ± 4.7e-05	
G7U G38A G40A G62A	< 1e-05	< 1e-05	< 1e-05	
A15G G51U G59A	< 1e-05		< 1e-05	< 1e-05
A6G G35C G59A	< 1e-05	< 1e-05		
G9U U30C C34U C58U G66U C70G		< 1e-05		< 1e-05
U2C U56C	0.000197 ± 5.4e-05	0.000865 ± 0.00022	0.00287 ± 0.00077	
U49A U56C A64U	< 1e-05	< 1e-05	< 1e-05	
U30A G51A	< 1e-05			
C11U G37C A39U U47G	< 1e-05			
A12C A15G C50G U56G C67G	0.000121 ± 2.8e-05	0.000141 ± 3.7e-05	0.000133 ± 3.1e-05	4.37e-05 ± 1.2e-05
U57G C68U C71U	4.43e-05 ± 1.8e-05		5.05e-05 ± 2.4e-05	
A6C G9A U45A	< 1e-05	< 1e-05		
A33C A64U C70A	< 1e-05		< 1e-05	
C16U A52G C68U	6.54e-05 ± 2.2e-05	0.000491 ± 0.00012	0.000422 ± 0.00016	
G29A G32C A33U G60C G66U	< 1e-05			< 1e-05
G9C G32C A33C A39G C61A	< 1e-05		< 1e-05	
G7C A36G A39C	< 1e-05	< 1e-05		
A6G A14C A42G U49G	< 1e-05			
C8A C10A C34A		< 1e-05		

Variant	self-cleavage kobs at 160 uM GlcN6P [1] [s⁻¹]	self-cleavage kobs at 640 uM GlcN6P [2] [s⁻¹]	self-cleavage kobs at 2500 uM GlcN6P [3] [s⁻¹]	self-cleavage kobs at 10000 uM GlcN6P [4] [s⁻¹]
U46C U54A	0.000326 ± 8.6e-05	0.00148 ± 0.00038		
A36G U57G	< 1e-05	< 1e-05	< 1e-05	< 1e-05
G9U A14U U47A	< 1e-05	< 1e-05	< 1e-05	
U30C G35C	< 1e-05	< 1e-05	< 1e-05	< 1e-05
C8U A12C A42U A53U C61A	< 1e-05	< 1e-05	< 1e-05	
G35U G44C G66U		< 1e-05		
A12G U56C G60A	< 1e-05	< 1e-05	< 1e-05	
C11A A53C C67G	< 1e-05	< 1e-05		
C10G A36C	< 1e-05	< 1e-05	< 1e-05	
C34U G41A	< 1e-05	< 1e-05	< 1e-05	< 1e-05
G38U A42U U56G	< 1e-05	< 1e-05		< 1e-05
C8G G37U G51U	< 1e-05	< 1e-05		
C8A A12G G32A		< 1e-05		< 1e-05
C11A G29A C34A U57C	< 1e-05	< 1e-05		
A36G G44A U55C U65G	< 1e-05	< 1e-05	< 1e-05	
U54G U56A	0.000806 ± 0.00016	0.00244 ± 0.00071	0.012 ± 0.0054	0.0311 ± 0.013
A15G A53G U65C	6.49e-05 ± 1.6e-05	0.000264 ± 6.9e-05	0.000485 ± 0.00011	
G35A G43C A53U U54A		< 1e-05	< 1e-05	
U49A U57C		< 1e-05		
A48U U49C A64U C70U	< 1e-05	< 1e-05		
C58U C68A C71G	8.62e-05 ± 2.6e-05	4.72e-05 ± 2.2e-05		
G43A G60U	< 1e-05	< 1e-05		< 1e-05
G7U C19U G38U	< 1e-05		< 1e-05	
A14U G29A A52C C61U C68A C71G	0.000123 ± 3.3e-05	9.79e-05 ± 2.9e-05	0.00014 ± 5e-05	
A39C G59U C61A	< 1e-05			
A15U A33U C50U G51U G62U G63A C70U	9.07e-05 ± 2.6e-05	0.000118 ± 3.6e-05	7.13e-05 ± 2.3e-05	

Variant	self-cleavage kobs at 160 uM GlcN6P [1] [s⁻¹]	self-cleavage kobs at 640 uM GlcN6P [2] [s⁻¹]	self-cleavage kobs at 2500 uM GlcN6P [3] [s⁻¹]	self-cleavage kobs at 10000 uM GlcN6P [4] [s⁻¹]
A12C C16U A53G U65G	9.62e-05 ± 2.4e-05	0.000453 ± 9.1e-05	0.000899 ± 0.00019	
A12U U69C	0.000492 ± 0.00017	0.00151 ± 0.00069	0.00211 ± 0.00066	
A42G U54A C67A	0.000942 ± 0.00031	0.0023 ± 0.001	0.00449 ± 0.0011	
U57C G60A	< 1e-05	< 1e-05	< 1e-05	
U31A A42U U45A G62U	< 1e-05		< 1e-05	
G7A C10A C16G G29A A42U G51U C61U	< 1e-05		< 1e-05	< 1e-05
G9C G38A C70U	< 1e-05	< 1e-05	< 1e-05	
G35A U57A	< 1e-05	< 1e-05	< 1e-05	< 1e-05
G13A G51A C70A	6.55e-05 ± 2.4e-05			
A33U C34A C58U	< 1e-05		< 1e-05	
G41A G59U C71U	< 1e-05	< 1e-05	< 1e-05	
A39U U47G A52U G60U G63U	< 1e-05			
A12G G32A G35U C68G	< 1e-05			
A14U C16A A33C	< 1e-05	< 1e-05		
A15C C16G C50G A64C	0.000208 ± 6.7e-05	7.03e-05 ± 2.7e-05	5.92e-05 ± 1.8e-05	
C34U G37C	< 1e-05			< 1e-05
U30C A36C C50G G59C	0.000229 ± 9.7e-05			
G43C C61A	< 1e-05	< 1e-05	< 1e-05	< 1e-05
A6G G9U G32C G40U U45A U47G U69C	< 1e-05			
C10A U45C	< 1e-05	< 1e-05	< 1e-05	< 1e-05
A33U U47C C67G	< 1e-05	< 1e-05	< 1e-05	
G44U C58U	< 1e-05	< 1e-05	< 1e-05	< 1e-05
C11U U65C	< 1e-05			
A39C G43C C67U	< 1e-05		< 1e-05	
C50G U65C	4.48e-05 ± 1.6e-05	0.000255 ± 0.0001	4.37e-05 ± 2.1e-05	
A15G G21C A39G G40C A48C C58U	< 1e-05			

Source: the supplement of paper PMC7125110
